The results in this text go back to publication PMC10196373, “Conformational analysis and interaction of the Staphylococcus aureus transmembrane peptidase AgrB with its AgrD propeptide substrate” (Frontiers in Chemistry, 2023).

Series [1] deals with T1, AgrB1 with C-terminal SmBiT (agrBCS) (Staphylococcus aureus, UniProt P0C1P7 1-189).
T1 construct: AgrB1, transmembrane peptidase of S. aureus agr group 1; agrB1 gene amplified with its upstream P2 promoter; A 16 amino acid flexible linker joins AgrB and SmBiT; also called AgrB-SmBiT; pSK-P2-agrBCS; source: S. aureus SH1000, from the agr P2 promoter, chromosomal (attB2) or on low copy plasmid pSK5630, in live cells; not shown: SmBiT (NanoBiT), C-terminal, kept
T1 sequence: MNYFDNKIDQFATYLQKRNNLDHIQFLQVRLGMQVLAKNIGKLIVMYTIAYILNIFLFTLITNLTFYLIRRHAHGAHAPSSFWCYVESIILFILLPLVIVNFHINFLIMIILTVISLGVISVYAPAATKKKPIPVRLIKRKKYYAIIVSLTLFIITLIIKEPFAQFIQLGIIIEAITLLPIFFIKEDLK
Put plainly: split reporter (BiFC, NanoBiT); live S. aureus SH1000 cells; one tagged fusion on the chromosome (attB2), the other on a low copy plasmid, both from the agr P2 promoter; cells at OD600 1.0, Nano-Glo live cell reagent (furimazine), bioluminescence (RLU). The following applies: partners not purified.

Series [2] deals with the molecule itself. Put plainly: new band of the complex on Tris-glycine gel, Western blot; purified AgrB with DOPG (1 mg/mL) incubated with T7-AgrD1 (2 uM) 30 min at 37 C in 20 mM Tris-HCl pH 7.5, 5 mM MgSO4; heated to 55 C for 5 min in SDS sample buffer, 14% Tris-glycine gel without SDS; blots probed with an AgrB nanobody or an anti-T7 antibody.

B1: AgrD1 with C-terminal LgBiT (agrDCL) (peptide)
chain: MNTLFNLFFDFITGILKNIGNIAAYSTCDFIMDEVEVPKELTQLHE
notes: AgrD1 pro-peptide of S. aureus agr group 1; PCR-amplified agrD1 put in place of agrB1 in the split luciferase plasmid; A 16 amino acid flexible linker joins AgrD and LgBiT; also called pAgrDCL; AgrD-LgBit; source: S. aureus SH1000, from the agr P2 promoter on low copy plasmid pSK5630, in live cells; not shown: LgBiT (NanoBiT), C-terminal, kept
On to B1, for which, in series [1], the “luminescent signal relative to the other constructs” value is > 10 times.

B2: T7-AgrD1, AIP pro-peptide AgrD1 with a 14 residue T7 epitope leader tag (peptide)
peptide: B1 chain
notes: AgrD1 pro-peptide of S. aureus agr group 1; also called AgrD-T7; T7-tagged AgrD; source: synthetic peptide (solid phase synthesis), bought: CS Bio
Consider B2, for which the binding result in series [2] is listed as “binds”.
